Our source for the Km values is PMC2811748, “H^+-Independent Glutamine Transport in Plant Root Tips” (PLoS ONE, 2010).

Substrate in the data set: NC(=O)CC[C@H](N)C(=O)O
The data set is described as follows: cells, lysate or membranes. Format: cell-based, Arabidopsis thaliana.

B1: CAT8 (Arabidopsis thaliana) (protein)
chain: MIPASMEEAHQLESRSDDLSQRRSYWRWRKQDFFPEFSFQSFSTYKSALSATCPRLADRLLSRSSDAYELDAARRESENPMRRCLTWWDLLWLSFGSVVGSGVFVITGQEARVGAGPAVVLSYAISGVSALLSVLCYAEFGVEIPVAGGSFSYLRVELGDFIAFIAAGNILLEAMVGAAGLGRSWSSYLASLVKNDSDYFRIKVDSFAKGFDLLDPVAVAVLLVANGIAMTGTKRTSWLNLITSMVTVCIIVFIVVVGFTHSKTSNLVPFFPYGAKGVVQSAAVVYWSYTGFDMVANMAEETEKPSRDIPIGLVGSMSMITVVYCLMALALTMMVKYTEIDANAAYSVAFAQIGMKWAKYLVGICALKGMTTSLLVGSLGQARYTTQIARSHMIPPWFALVHPKTGTPIYATLLVTILSSIISFFTSLEVLSSVFSFATLFIFMLVAVALLVRRYYVKDVTPEAGLLKFLGFLFLIIASSIGVSALWNSGVKGWIAYTVTGVIWFIGTLGLALLPKYRVPKVWGVPLVPWLPSFSIAMNLFLIGSLGYVAFLRFIICTMVMLLYYLFVGLHATYDVAHQPLEEAKFEGER
notes: CAT8 (At1g17120) expressed in Xenopus oocytes and in yeast 22Δ8AA
Consider B1, for which the Km was 100 µM.
